The source of these data is patent US20250134889.

In the series the target is purified, recombinant human FMRP protein.

B1: inositol-requiring enzyme-1 (IRE1), wild type, expressed from plasmid in HEK293T cells (protein)
chain: IFGSTSTVTLPETLLFVSTLDGSLHAVSKRTGSIKWTLKEDPVLQVPTHVEEPAFLPDPNDGSLYTLGSKNNEGLTKLPFTIPELVQASPCRSSDGILYMGKKQDIWYVIDLLTGEKQQTLSSAFADSLCPSTSLLYLGRTEYTITMYDTKTRELRWNATYFDYAASLPEDDVDYKMSHFVSNGDGLVVTVDSESGDVLWIQNYASPVVAFYVWQREGLRKVMHINVAVETLRYLTFMSGEVGRITKWKYPFPKETEAKSKLTPTLYVGKYSTSLYASPSMVHEGVAVVPRGSTLPLLEGPQTDGVTIGDKGECVITPSTDVKFDPGLKSKNKLNYLRNYWLLIGHHETPLSASTKMLERFPNNLPKHRENVIPADSEKKSFEEVINLVDQTSENAPTTVSRDVEEKPAHAPARPEAPVDSMLKDMATIILSTFLLIGWVAFIITYPLSMHQQQQLQHQQFQKELEKIQLLQQQQQQLPFHPPGDTAQDGELLDTSGPYSESSGTSSPSTSPRASNHSLCSGSSASKAGSSPSLEQDDGDEETSVVIVGKISFCPKDVLGHGAEGTIVYRGMFDNRDVAVKRILPECFSFADREVQLLRESDEHPNVIRYFCTEKDRQFQYIAIELCAATLQEYVEQKDFAHLGLEPITLLQQTTSGLAHLHSLNIVHRDLKPHNILISMPNAHGKIKAMISDFGLCKKLAVGRHSFSRRSGVPGTEGWIAPEMLSEDCKENPTYTVDIFSAGCVFYYVISEGSHPFGKSLQRQANILLGACSLDCLHPEKHEDVIARELIEKMIAMDPQKRPSAKHVLKHPFFWSLEKQLQFFQDVSDRIEKESLDGPIVKQLERGGRAVVKMDWRENITVPLQTDLRKFRTYKGGSVRDLLRAMRNKKHHYRELPAEVRETLGSLPDDFVCYFTSRFPHLLAHTYRAMELCSHERLFQPYYFHEPPEPQPPVTPDAL
Regarding B1, the “thio-phosphorylation in an in vitro kinase reaction (ATP-γ-S; western blot with anti-thiophosphate ester antibody)” value was “In the reaction containing IRE1-WT, both proteins were thio-phosphorylated”.

B2: kinase dead (KD) mutant IRE1 (K599A), expressed from plasmid in HEK293T cells (protein)
chain: IFGSTSTVTLPETLLFVSTLDGSLHAVSKRTGSIKWTLKEDPVLQVPTHVEEPAFLPDPNDGSLYTLGSKNNEGLTKLPFTIPELVQASPCRSSDGILYMGKKQDIWYVIDLLTGEKQQTLSSAFADSLCPSTSLLYLGRTEYTITMYDTKTRELRWNATYFDYAASLPEDDVDYKMSHFVSNGDGLVVTVDSESGDVLWIQNYASPVVAFYVWQREGLRKVMHINVAVETLRYLTFMSGEVGRITKWKYPFPKETEAKSKLTPTLYVGKYSTSLYASPSMVHEGVAVVPRGSTLPLLEGPQTDGVTIGDKGECVITPSTDVKFDPGLKSKNKLNYLRNYWLLIGHHETPLSASTKMLERFPNNLPKHRENVIPADSEKKSFEEVINLVDQTSENAPTTVSRDVEEKPAHAPARPEAPVDSMLKDMATIILSTFLLIGWVAFIITYPLSMHQQQQLQHQQFQKELEKIQLLQQQQQQLPFHPPGDTAQDGELLDTSGPYSESSGTSSPSTSPRASNHSLCSGSSASKAGSSPSLEQDDGDEETSVVIVGKISFCPKDVLGHGAEGTIVYRGMFDNRDVAVARILPECFSFADREVQLLRESDEHPNVIRYFCTEKDRQFQYIAIELCAATLQEYVEQKDFAHLGLEPITLLQQTTSGLAHLHSLNIVHRDLKPHNILISMPNAHGKIKAMISDFGLCKKLAVGRHSFSRRSGVPGTEGWIAPEMLSEDCKENPTYTVDIFSAGCVFYYVISEGSHPFGKSLQRQANILLGACSLDCLHPEKHEDVIARELIEKMIAMDPQKRPSAKHVLKHPFFWSLEKQLQFFQDVSDRIEKESLDGPIVKQLERGGRAVVKMDWRENITVPLQTDLRKFRTYKGGSVRDLLRAMRNKKHHYRELPAEVRETLGSLPDDFVCYFTSRFPHLLAHTYRAMELCSHERLFQPYYFHEPPEPQPPVTPDAL
As for B2, the “thio-phosphorylation in an in vitro kinase reaction (ATP-γ-S; western blot with anti-thiophosphate ester antibody)” value is listed as “but not in the reaction containing the IRE1-KD mutant”.

B3: purified, recombinant human IRE1-kinase/RNase domains (amino acids 468-977) (protein)
chain: MHQQQQLQHQQFQKELEKIQLLQQQQQQLPFHPPGDTAQDGELLDTSGPYSESSGTSSPSTSPRASNHSLCSGSSASKAGSSPSLEQDDGDEETSVVIVGKISFCPKDVLGHGAEGTIVYRGMFDNRDVAVKRILPECFSFADREVQLLRESDEHPNVIRYFCTEKDRQFQYIAIELCAATLQEYVEQKDFAHLGLEPITLLQQTTSGLAHLHSLNIVHRDLKPHNILISMPNAHGKIKAMISDFGLCKKLAVGRHSFSRRSGVPGTEGWIAPEMLSEDCKENPTYTVDIFSAGCVFYYVISEGSHPFGKSLQRQANILLGACSLDCLHPEKHEDVIARELIEKMIAMDPQKRPSAKHVLKHPFFWSLEKQLQFFQDVSDRIEKESLDGPIVKQLERGGRAVVKMDWRENITVPLQTDLRKFRTYKGGSVRDLLRAMRNKKHHYRELPAEVRETLGSLPDDFVCYFTSRFPHLLAHTYRAMELCSHERLFQPYYFHEPPEPQPPVTPDAL
As for B3, the “IRE1-induced phosphorylation sites on FMRP (LC-MS/MS)” value was “eight IRE1-induced phosphorylation sites on FMRP at serine (S362, S494, S497, S500, S504) and threonine (T502, T592, T594)”; the “phosphorylation in an in vitro kinase reaction of purified proteins (western blot for ThioP; LC-MS/MS)” value was “Both IRE1 and FMRP were phosphorylated in this reaction in an AMG-18-sensitive manner”.
